Assay results published in PMC8310280.

Target: Shiftless (SHFL) WT (human) (UniProt Q9NUL5)
Test: EMSA

Shiftless (SHFL) WT (human), sequence (Q9NUL5 whole entry): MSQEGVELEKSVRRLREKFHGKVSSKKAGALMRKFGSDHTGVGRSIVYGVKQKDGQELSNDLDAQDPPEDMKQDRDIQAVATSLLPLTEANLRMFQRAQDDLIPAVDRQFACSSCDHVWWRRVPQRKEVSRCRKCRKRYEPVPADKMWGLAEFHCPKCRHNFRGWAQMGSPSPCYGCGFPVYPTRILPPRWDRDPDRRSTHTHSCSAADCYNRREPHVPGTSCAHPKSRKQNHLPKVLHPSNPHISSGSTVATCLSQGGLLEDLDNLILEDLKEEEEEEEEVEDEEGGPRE

Substance	Kd [nM]
GACCCUAGAUGACUAGGGAGGUCAGGGUCAGGAGCCCCCCCCUGAACCCAGGAUAACCCUCAAAGUCGGGGGGCAACCCGUCAC [MuLV RT signal]	500
GACCCUAGAUGACUAGGGAGGUCAGGGACACGAGCCCCCCCCUGAACCCAGGAUAACCCUCAAAGUCGGGGGGCAACCCGUCAC [MuLV S1]	500
IBVmax (wild-type pseudoknot)	500
control RNA (SARS-CoV-2 antigenome)	500
